Experimental data reported in the RNAGym collection of RNA variant scans (doi:10.1093/molbev/msab373).

B1: Azoarcus group I ribozyme (parent)
chain: GUGCCUUGCGCCGGGAAACCACGCAAGGGAUGGUGUCAAAUUCGGCGAAACCUAAGCGCCCGCCCGGGCGUAUGGCAACGCCGAGCCAAGCUUCGGCGCCUGCGCCGAUGAAGGUGUAGAGACUAGACGGCACCCACCUAAGGCAAACGCUAUGGUGAAGGCAUAGUCCAGGGAGUGGCGAAAGUCACACAAACCGG

Variants of: B1
Test: reverse-splicing fitness (ratio to wild type); higher = more active; in vitro selection; Mg2+ level not given
Procedure, shortened: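 An in vitro group I ribozyme library with randomized positions was T7-transcribed and gel-purified. In triplicate, 10 pmol RNA in EPPS pH 7.5 was reacted with 50 pmoles of a 30-nt RNA substrate for 1 h at 37 °C across several added MgCl2 levels (1–48 mM), then stopped with EDTA. Products were reverse transcribed from a substrate-complementary primer, PCR-amplified and sequenced (HiSeq 4000). Fitness is a variant's read proportion after selection over that before, normalised to wild type.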

First: C82U A111C A145G C150A C169A
Second: C82U A111C A145G C150A C169U
The reverse-splicing fitness of the first is lower: 0.0093 for the first, 0.0103 for the second.

First: C82U A111C A145G C150A C169G
Second: C82U A111C A145G C150A U176G
The reverse-splicing fitness of the first is lower: 0.00813 for the first, 0.00984 for the second.

First: C82U A111C A145G C150A U176C
Second: C82U A111C A145G C150A U176A
The reverse-splicing fitness of the first is higher: 0.0313 for the first, 0.0169 for the second.

Going from C82U A111C A120U C150U C169A to C82U A111C A120U C150U C169U, the reverse-splicing fitness rises from 0.00496 to 0.00505.

Compared with C82U A111C A120U C150U C169G, C82U A111C A145U C150A U176A is higher in reverse-splicing fitness: 0.00449 for the first, 0.0153 for the second.

First: C82U A111C A145U C150A U176G
Second: C82U A111C A145U C150A U176C
The reverse-splicing fitness of the first is lower: 0.00817 for the first, 0.022 for the second.

First: C82U A111C A145C
Second: C82U A111C A145U
The reverse-splicing fitness of the first is lower: 0.239 for the first, 0.246 for the second.

First: C82U A111C A145G
Second: C82U A111C A145U C150A C169U U176G
The reverse-splicing fitness of the first is higher: 0.266 for the first, 0.00805 for the second.

Going from C82U A111C A145U C150A C169U U176A to C82U A111C A145U C150A C169U U176C, the reverse-splicing fitness falls from 0.0193 to 0.013.

Going from C82U A111C A145G C150U C169A U176C to C82U A111C A145G C150U C169A U176G, the reverse-splicing fitness falls from 0.013 to 0.00752.

Going from C82U A111C A145G C150U C169A U176A to C82U A111C A145G C150A C169A U176A, the reverse-splicing fitness rises from 0.0141 to 0.0149.

Going from C82U A111C A145G C150A C169A U176C to C82U A111C A145G C150A C169A U176G, the reverse-splicing fitness falls from 0.0197 to 0.00838.

Compared with C82U A111C A120U C150G, C82U A111C A120U C150A is higher in reverse-splicing fitness: 0.00681 for the first, 0.0078 for the second.

Going from C82U A111C A120U C150U to C82U A111C A120U C150G C169U U176A, the reverse-splicing fitness falls from 0.0166 to 0.00421.

Going from C82U A111C A120U C150G C169U U176G to C82U A111C A120U C150G C169U U176C, the reverse-splicing fitness rises from 0.00265 to 0.00516.

Compared with C82U A111C A145G C150G U176G, C82U A111C A145G C150G U176C is higher in reverse-splicing fitness: 0.00671 for the first, 0.0166 for the second.

Compared with C82U A111C A145G C150G U176A, C82U A111C A120U C150U C169A U176A is lower in reverse-splicing fitness: 0.0105 for the first, 0.00486 for the second.

First: C82U A111C A120U C150U C169A U176G
Second: C82U A111C A120U C150U C169A U176C
The reverse-splicing fitness of the first is lower: 0.00291 for the first, 0.00372 for the second.

Compared with C82U A111C A145G C169U U176A, C82U A111C A145G C169U U176G is lower in reverse-splicing fitness: 0.0178 for the first, 0.00688 for the second.

First: C82U A111C A145G C169U U176C
Second: C82U A111C A145C C150A U176C
The reverse-splicing fitness of the first is higher: 0.0148 for the first, 0.0145 for the second.

First: C82U A111C A145C C150A U176G
Second: C82U A111C A145C C150A U176A
The reverse-splicing fitness of the first is lower: 0.00685 for the first, 0.0114 for the second.

First: C82U A111C A120U A145U C150U
Second: C82U A111C A120U A145U C150A
The reverse-splicing fitness of the first is higher: 0.0186 for the first, 0.00535 for the second.

Going from C82U A111C A120U A145U C150G to C82U A111C A145G C169A, the reverse-splicing fitness rises from 0.00613 to 0.00937.

Going from C82U A111C A145G C169G to C82U A111C A145G C169U, the reverse-splicing fitness rises from 0.00955 to 0.012.

Compared with C82U A111C A145C C150G U176G, C82U A111C A145C C150G U176A is higher in reverse-splicing fitness: 0.00264 for the first, 0.00961 for the second.

First: C82U A111C A145C C150G U176C
Second: C82U A111C A120U A145U C150G U176G
The reverse-splicing fitness of the first is higher: 0.0151 for the first, 0.00316 for the second.

First: C82U A111C A120U A145U C150G U176C
Second: C82U A111C A120U A145U C150G U176A
The reverse-splicing fitness of the first is higher: 0.00509 for the first, 0.00354 for the second.

Compared with C82U A111C A120U A145G C169A U176A, C82U A111C A120U A145G C169A U176G is lower in reverse-splicing fitness: 0.00295 for the first, 0.00196 for the second.

First: C82U A111C A120U A145G C169A U176C
Second: C82U A111C A145C C150U C169A U176A
The reverse-splicing fitness of the first is lower: 0.0035 for the first, 0.011 for the second.

Compared with C82U A111C A145C C150U C169A U176G, C82U A111C A145C C150U C169A U176C is higher in reverse-splicing fitness: 0.00687 for the first, 0.01 for the second.

First: C82U A111C A145U C150G C169G U176G
Second: C82U A111C A145U C150G C169G U176A
The reverse-splicing fitness of the first is higher: 0.00703 for the first, 0.00648 for the second.

Going from C82U A111C A145U C150G C169G U176C to C82U A111C A145C C150A C169A, the reverse-splicing fitness rises from 0.00532 to 0.00786.

Going from C82U A111C A145C C150A C169G to C82U A111C A145C C150A C169U, the reverse-splicing fitness rises from 0.00773 to 0.00887.

Going from C82U A111C A145C C150G C169A U176C to C82U A111C A145C C150G C169A U176A, the reverse-splicing fitness rises from 0.0077 to 0.00873.

First: C82U A111C A145C C150G C169A U176G
Second: C82U A111C A145C C150U C169U U176A
The reverse-splicing fitness of the first is lower: 0.00657 for the first, 0.0154 for the second.

First: C82U A111C A145C C150U C169U U176C
Second: C82U A111C A145C C150U C169U U176G
The reverse-splicing fitness of the first is higher: 0.00946 for the first, 0.00631 for the second.

Going from C82U A111C A145C C150A C169G U176C to C82U A111C A145C C150A C169G U176G, the reverse-splicing fitness falls from 0.0205 to 0.00743.

Going from C82U A111C A145C C150A C169G U176A to C82U A111C A120U A145U C150U C169G, the reverse-splicing fitness falls from 0.024 to 0.00301.

Going from C82U A111C A120U A145U C150U C169U to C82U A111C A120U A145U C150U C169A, the reverse-splicing fitness falls from 0.0037 to 0.00252.

Compared with C82U A111C A145G C150G C169A U176A, C82U A111C A145G C150G C169A U176G is lower in reverse-splicing fitness: 0.0123 for the first, 0.0072 for the second.

Going from C82U A111C A145G C150G C169A U176C to C82U A111C A120U C150A C169U U176C, the reverse-splicing fitness falls from 0.0111 to 0.0037.

Work on C82U A111C A120U C150A C169U U176A yielded a reverse-splicing fitness of 0.00699.
